Laboratory results taken from publication PMC11195156 (bioRxiv, 2025).

T1: Escherichia coli sulfite reductase hemoprotein (Escherichia coli K-12, UniProt P17846 1-570)
T1 sequence: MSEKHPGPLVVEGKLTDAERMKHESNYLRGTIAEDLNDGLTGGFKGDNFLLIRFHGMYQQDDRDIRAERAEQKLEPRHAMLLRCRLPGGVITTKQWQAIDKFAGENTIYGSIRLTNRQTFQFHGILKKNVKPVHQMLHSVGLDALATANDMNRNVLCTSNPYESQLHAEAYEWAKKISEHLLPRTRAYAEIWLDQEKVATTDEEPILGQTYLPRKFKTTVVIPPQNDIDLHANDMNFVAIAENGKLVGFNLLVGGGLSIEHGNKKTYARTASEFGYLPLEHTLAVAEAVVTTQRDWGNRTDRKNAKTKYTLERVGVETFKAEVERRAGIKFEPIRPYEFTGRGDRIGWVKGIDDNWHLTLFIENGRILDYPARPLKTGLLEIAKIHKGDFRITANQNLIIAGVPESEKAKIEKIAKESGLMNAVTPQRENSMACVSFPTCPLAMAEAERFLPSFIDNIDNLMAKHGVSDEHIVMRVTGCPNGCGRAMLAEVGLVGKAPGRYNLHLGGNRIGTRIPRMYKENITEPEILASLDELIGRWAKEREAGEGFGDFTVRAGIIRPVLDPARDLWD

B1: SiRFP-43: sulfite reductase flavoprotein amino acids 237-599 (domain or fragment, Escherichia coli K-12, UniProt P38038 237-599, looked up)
chain: LVASLSVNQKITGRNSEKDVRHIEIDLGDSGMRYQPGDALGVWYQNDPALVKELVELLWLKGDEPVTVEGKTLPLNEALQWHFELTVNTANIVENYATLTRSETLLPLVGDKAKLQHYAATTPIVDMVRFSPAQLDAEALINLLRPLTPRLYSIASSQAEVENEVHVTVGVVRYDVEGRARAGGASSFLADRVEEEGEVRVFIEHNDNFRLPANPETPVIMIGPGTGIAPFRAFMQQRAADEAPGKNWLFFGNPHFTEDFLYQVEWQRYVKDGVLTRIDLAWSRDQKEKVYVQDKLREQGAELWRWINDGAHIYVCGDANRMAKDVEQALLEVIAEFGGMDTEAADEFLSELRVERRYQRDVY
B2: SiRFP-60X: sulfite reductase flavoprotein amino acids 52-599 (C162T/C552S/E121C/N556C) (domain or fragment, Escherichia coli K-12, UniProt P38038 52-599, looked up)
chain: AATPAPAAEMPGITIISASQTGNARRVAEALRDDLLAAKLNVKLVNAGDYKFKQIASEKLLIVVTSTQGCGEPPEEAVALHKFLFSKKAPKLENTAFAVFSLGDSSYEFFTQSGKDFDSKLAELGGERLLDRVDADVEYQAAASEWRARVVDALKSRAPVAAPSQSVATGAVNEIHTSPYSKDAPLVASLSVNQKITGRNSEKDVRHIEIDLGDSGMRYQPGDALGVWYQNDPALVKELVELLWLKGDEPVTVEGKTLPLNEALQWHFELTVNTANIVENYATLTRSETLLPLVGDKAKLQHYAATTPIVDMVRFSPAQLDAEALINLLRPLTPRLYSIASSQAEVENEVHVTVGVVRYDVEGRARAGGASSFLADRVEEEGEVRVFIEHNDNFRLPANPETPVIMIGPGTGIAPFRAFMQQRAADEAPGKNWLFFGNPHFTEDFLYQVEWQRYVKDGVLTRIDLAWSRDQKEKVYVQDKLREQGAELWRWINDGAHIYVSGDACRMAKDVEQALLEVIAEFGGMDTEAADEFLSELRVERRYQRDVY
B3: SiRFP-60Δ: sulfite reductase flavoprotein amino acids 52-599/Δ212-217 (Δ-AAPSQS) (domain or fragment, Escherichia coli K-12, UniProt P38038 52-599, looked up)
chain: AATPAPAAEMPGITIISASQTGNARRVAEALRDDLLAAKLNVKLVNAGDYKFKQIASEKLLIVVTSTQGEGEPPEEAVALHKFLFSKKAPKLENTAFAVFSLGDSSYEFFCQSGKDFDSKLAELGGERLLDRVDADVEYQAAASEWRARVVDALKSRAPVVATGAVNEIHTSPYSKDAPLVASLSVNQKITGRNSEKDVRHIEIDLGDSGMRYQPGDALGVWYQNDPALVKELVELLWLKGDEPVTVEGKTLPLNEALQWHFELTVNTANIVENYATLTRSETLLPLVGDKAKLQHYAATTPIVDMVRFSPAQLDAEALINLLRPLTPRLYSIASSQAEVENEVHVTVGVVRYDVEGRARAGGASSFLADRVEEEGEVRVFIEHNDNFRLPANPETPVIMIGPGTGIAPFRAFMQQRAADEAPGKNWLFFGNPHFTEDFLYQVEWQRYVKDGVLTRIDLAWSRDQKEKVYVQDKLREQGAELWRWINDGAHIYVCGDANRMAKDVEQALLEVIAEFGGMDTEAADEFLSELRVERRYQRDVY

target: T1, Escherichia coli sulfite reductase …; assay: cryo-EM structure

Question: Does B1 bind?
Answer: Result: binds

Question: Does B2 bind?
Answer: Result: binds

Question: Does B3 bind?
Answer: Result: binds
